According to publication PMC11833081, “Biochemical analyses of cystatin-C dimers and cathepsin-B reveals a trypsin-driven feedback mechanism in acute pancreatitis” (Nature Communications, 2025):

Legend:
[1] = biological target: trypsin-cleaved (truncated) recombinant murine cystatin C (mouse) (UniProt P21460); assay: SEC; pH 5.0 and 5.5 (100 mM sodium acetate, 150 mM NaCl) and pH 5.5, 6.0, 7.0, 8.0 (100 mM sodium phosphate, 150 mM NaCl); 3 mg/mL protein kept at 4 °C overnight in the buffer; monomer to dimer ratio
[2] = biological target: trypsin-cleaved (truncated) recombinant murine cystatin C (mouse) (UniProt P21460); assay: SEC; pH 4.0: 100 mM sodium acetate, 150 mM sodium chloride; 3 mg/mL protein kept at 4 °C overnight in the buffer; monomer to dimer ratio
[3] = biological target: recombinant murine cathepsin B, wild type, auto-activated (mouse)
[4] = biological target: the molecule itself; assay: SEC; Superdex 75 Increase 10/300 GL; running buffer 100 mM sodium acetate, 5 mM calcium chloride, 100 mM NaCl, pH 5.5; separation of monomer and dimer fractions

## trypsin-cleaved (truncated) recombinant murine cystatin C (from UniProt P21460 29-140) (domain or fragment)
[1]
  percent present as dimer: 70%
[2]
  percent present as dimer: 100%

B1: murine cystatin C dimer (dimer fraction isolated by size exclusion chromatography) (complex)
chain: ATPKQGPRMLGAPEEADANEEGVRRALDFAVSEYNKGSNDAYHSRAIQVVRARKQLVAGVNYFLDVEMGRTTCTKSQTNLTDCPFHDQPHLMRKALCSFQIYSVPWKGTHSLTKFSCKNA
[3]
  CTSB activity at pH 5.5 (Arg-Arg-AMC) with the CST3 dimer fraction: 3 fold

B2: recombinant murine cystatin C (CST3), full-length (not trypsin-treated) (natural protein, mouse, UniProt P21460 21-140, looked up)
chain: ATPKQGPRMLGAPEEADANEEGVRRALDFAVSEYNKGSNDAYHSRAIQVVRARKQLVAGVNYFLDVEMGRTTCTKSQTNLTDCPFHDQPHLMRKALCSFQIYSVPWKGTHSLTKFSCKNA
notes: cystatin C, mouse, synthetic gene ordered without the signal peptide; The preparation is a mixture of monomer and dimer; the monomer fraction isolated by SEC is called mCST3; also called mCST3 (monomer fraction); CST3 monomers; source: E. coli SHuffle T7 Express, purified (Ni-IDA; monomer fraction by SEC); not shown: His-tag, N-terminal, kept; TEV protease cleavage site, N-terminal, kept
[4]
  stoichiometry N: 2
